Consider four molecules from patent publication US20260152546A1.

Broadly, the IC50 is the concentration needed to halve the response being measured. High values mean weaker potency, low ones greater potency. Broadly, the IC80 is the point of the concentration-response curve where the effect stands at 80%. High values mean a need for much substance, low ones an effect from little substance.

Where two headings read alike, the source gives them in different places.

The target in assay [1] is HIV-1 Env of the BG505 strain (on pseudovirus) (HIV-1).
Assay [2] deals with panel of 208 geographically and genetically diverse HIV-1 Env pseudoviruses.
Assay [3] concerns the target HIV-1 Env of the BG505 strain (on pseudovirus) (HIV-1). This is another data set of the same source.
For assay [4], the target named is panel of 208 geographically and genetically diverse HIV-1 Env pseudoviruses. The source holds these as a separate data set.
The target of assay [5] is HIV-1 Env of pseudovirus ZM233.6 (clade C) (HIV-1).
The target in assay [6] is HIV-1 Env of the BG505 strain (on pseudovirus) (HIV-1). This is another data set of the same source.
In assay [7] the target is HIV-1 Env of pseudovirus ZM233.6 (clade C) (HIV-1). This is another data set of the same source.
The target of assay [8] is HIV-1 Env of pseudovirus CH038.12 (clade BC) (HIV-1).
The target of assay [9] is HIV-1 Env of pseudovirus 246-F3.C10.2 (clade AC) (HIV-1).
The target in assay [10] is HIV-1 Env of pseudovirus 191821.E6.1 (clade D) (HIV-1).
Assay [11] deals with HIV-1 Env of pseudovirus Q259.17 (clade A) (HIV-1).
For assay [12], the target named is HIV-1 Env of pseudovirus CAP256.206.C9 (clade C) (HIV-1).
The target in assay [13] is HIV-1 Env of pseudovirus 16936-2.21 (clade C) (HIV-1).

In assay [1], PGT145 N(100l)D (antibody) registered an IC50 of 0.003 µg/mL and an IC80 of 0.01 µg/mL.

B1: PG9RSH N(100f)Y (antibody, V domains shown)
VH: ERLVESGGGVVQPGSSLRLSCAASGFDFSRQGMHWVRQAPGQGLEWVAFIKYDGSEKYHADSVWGRLSISRDNSKDTLYLQMNSLRVEDTATYFCVREAGGPDYRNGYYYYDFYDGYYNYHYMDVWGKGTTVTVSS
VL: QSALTQPASVSGSPGQSITISCQGTSNDVGGYESVSWYQQHPGKAPKVVIYDVSKRPSGVSNRFSGSKSGNTASLTISGLQAEDEGDYYCKSLTSRSHRVFGTGTKLTVLG
In assay [2], B1 gave a % of viruses neutralized, IC50 50 µg/mL of 83%; a Mean IC50 (geometric mean, samples with IC50 < 50 µg/mL) of 0.04 µg/mL; a Median IC50 (samples with IC50 < 50 µg/mL) of 0.025 µg/mL. Also, in assay [3], the IC50 amounted to 0.009 µg/mL and the IC80 worked out at 0.023 µg/mL. In assay [4], this molecule displayed a % of viruses neutralized, IC80 < 1.0 µg/mL of 62%; a Mean IC80 (geometric mean, samples with IC80 < 50 µg/mL) of 0.106 µg/mL; a Median IC80 (samples with IC80 < 50 µg/mL) of 0.086 µg/mL. In assay [5], the fold decrease in IC50 relative to wild type stood at 63 fold.

B2: PG9RSH Y(100k)D (antibody, V domains shown)
VH: ERLVESGGGVVQPGSSLRLSCAASGFDFSRQGMHWVRQAPGQGLEWVAFIKYDGSEKYHADSVWGRLSISRDNSKDTLYLQMNSLRVEDTATYFCVREAGGPDYRNGYNYYDFDDGYYNYHYMDVWGKGTTVTVSS
VL: QSALTQPASVSGSPGQSITISCQGTSNDVGGYESVSWYQQHPGKAPKVVIYDVSKRPSGVSNRFSGSKSGNTASLTISGLQAEDEGDYYCKSLTSRSHRVFGTGTKLTVLG
Take B2: in [2], the % of viruses neutralized, IC50 50 µg/mL was 87%; the Mean IC50 (geometric mean, samples with IC50 < 50 µg/mL) is 0.035 µg/mL; the Median IC50 (samples with IC50 < 50 µg/mL) came to 0.017 µg/mL. In assay [6], this molecule returned an IC50 of 0.004 µg/mL and an IC80 of 0.01 µg/mL. In assay [4], the % of viruses neutralized, IC80 < 1.0 µg/mL was found to be 63%; the Mean IC80 (geometric mean, samples with IC80 < 50 µg/mL) came to 0.078 µg/mL; the Median IC80 (samples with IC80 < 50 µg/mL) is 0.058 µg/mL. In assay [7], this molecule came in with an IC50 (variant) of 0.001 µg/mL; a fold-change in IC50 between wild type and variant of 110 fold.

B3: PGT145 (antibody, V domains shown)
VH: QVQLVQSGAEVKKPGSSVKVSCKASGNSFSNHDVHWVRQATGQGLEWMGWMSHEGDKTGLAQKFQGRVTITRDSGASTVYMELRGLTADDTAIYYCLTGSKHRLRDYFLYNEYGPNYEEWGDYLATLDVWGHGTAVTVSS
VL: EVVITQSPLFLPVTPGEAASLSCKCSHSLQHSTGANYLAWYLQRPGQTPRLLIHLATHRASGVPDRFSGSGSGTDFTLKISRVESDDVGTYYCMQGLHSPWTFGQGTKVEIKR
B3: in assay [2], the % of viruses neutralized, IC50 50 µg/mL stood at 75%. The molecule further displayed a Mean IC50 (geometric mean, samples with IC50 < 50 µg/mL) in [2] of 0.086 µg/mL. This molecule displayed a Median IC50 (samples with IC50 < 50 µg/mL) in assay [2] of 0.053 µg/mL. The same molecule returned a % of viruses neutralized, IC80 < 1.0 µg/mL in assay [4] of 39%. In assay [4], this molecule gave a Mean IC80 (geometric mean, samples with IC80 < 50 µg/mL) of 0.343 µg/mL. Also, the Median IC80 (samples with IC80 < 50 µg/mL) in assay [4] turned out to be 0.276 µg/mL. Besides, the IC50 (WT) was determined as 46.5 µg/mL in assay [8]; 17.4 µg/mL in [9]; 3.35 µg/mL in assay [10]; 45 µg/mL in assay [11]; 3.95 µg/mL in [12]; 5.14 µg/mL in assay [13]. In addition, the IC50 in [1] worked out at 0.01 µg/mL. This molecule also registered an IC80 in assay [1] of 0.253 µg/mL.
